Test [1] addresses rat brain membrane K channels (delayed rectifier, primarily Kv1.2) (rat) (UniProt P63142).
The target of another test is Kv1.3 (Mus musculus, UniProt P16390). Kind of test: cell-based. Format: cell-based.
In test [2] the test system is rat brain membrane K channels (primarily Kv1.2). The test is classed as binding.
In test [3] the target is Kv1.3 potassium channels in Jurkat T lymphocytes (Homo sapiens, UniProt P22001). Format: cell-based.
For test [4], the target named is IKCa channel of activated human T-cells (human) (UniProt O15554). Kind of test: whole-cell patch clamp block, activated human T-cells. In general terms: Patch clamp records ionic current or voltage across a cell membrane.
Test [5] addresses rat brain membrane K channels (delayed rectifier, primarily Kv1.2) (rat) (UniProt P63142). This is another data set of the same source.
The target is the same in test [6]. The test is described as follows: 125I-DTX displacement, rat brain membranes.
Test [7] addresses cloned Kv1.3 channel, wild type.
Test [8] has as its target Kv1.3 potassium channel of human T lymphocytes (human) (UniProt P22001).
For test [9], the target named is rat brain membrane K channels (delayed rectifier, primarily Kv1.2) (rat) (UniProt P63142). Kind of test: radioligand displacement, rat brain membranes. In general terms: Displacement assays read how much labelled ligand stays bound in the presence of the test substance.
Chain of rat brain membrane K channels (delayed rectifier, primarily Kv1.2) (rat) (P63142 whole entry): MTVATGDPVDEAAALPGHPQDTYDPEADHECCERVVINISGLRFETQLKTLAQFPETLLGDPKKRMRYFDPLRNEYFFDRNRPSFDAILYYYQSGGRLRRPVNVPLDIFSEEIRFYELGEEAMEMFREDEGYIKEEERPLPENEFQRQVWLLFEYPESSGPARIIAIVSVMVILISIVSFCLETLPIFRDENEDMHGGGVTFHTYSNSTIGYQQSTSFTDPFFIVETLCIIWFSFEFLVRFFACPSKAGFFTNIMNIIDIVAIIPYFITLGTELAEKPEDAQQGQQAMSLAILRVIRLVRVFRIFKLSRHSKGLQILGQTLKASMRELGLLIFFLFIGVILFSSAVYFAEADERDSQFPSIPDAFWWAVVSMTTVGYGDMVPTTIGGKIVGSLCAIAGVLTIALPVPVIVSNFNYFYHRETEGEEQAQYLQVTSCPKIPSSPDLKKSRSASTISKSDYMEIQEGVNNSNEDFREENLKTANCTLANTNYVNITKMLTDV
Test [10] shares this target. The source holds these as a separate data set.
The target is the same in test [11]. Kind of test: IC50 ratio on brain delayed rectifier K channels (table title); assay not given.
Test [12] addresses cloned Kv1.3 channel, wild type. The source holds these as a separate data set.
The target of test [13] is cloned Kv1.2 channel.
Test [14] has as its target cloned Kv1.3 channel, wild type. The source holds these as a separate data set.
Test [15] has the same target. This is another data set of the same source.
Test [16] has the same target. The test is described as follows: block of cloned channel.
The target in test [17] is cloned Kv1.1 channel. The test is described as follows: block of cloned channel.
Test [18] deals with IKCa channel of activated human T-cells (human) (UniProt O15554). The test is described as follows: whole-cell patch clamp block, activated human T-cells; called Kd in paragraph 470.
A further test concerns the target Kv1.3 H404Y. Kind of test: electrophysiological block of current; Kd from fraction of unblocked current.
The target in test [19] is Kv1.3 channel printed as G30. The description is as above.
A further test concerns the target Kv1.3 D386K. The test is described as above.
Another test deals with Kv1.3 D386N. The description is as above.
The next test deals with Kv1.3 G380E. Described as above.
Another test deals with Kv1.3 H404L. Described as above.
Another test deals with Kv1.3 H404T. Described as above.
Test [20] deals with cloned Kv3.1 channel. The test is described as follows: patch clamp block of cloned channel.
Test [21] concerns the target cloned Kv1.5 channel. The test is described as follows: patch clamp block of cloned channel.
Test [22] concerns the target rat brain membrane K channels (delayed rectifier, primarily Kv1.2) (rat) (UniProt P63142). The source holds these as a separate data set.
The target in test [23] is cloned Kv1.3 channel, wild type. The source holds these as a separate data set.
For test [24], the target named is cloned Kv1.2 channel. The source holds these as a separate data set.
In test [25] the target is cloned Kv1.3 channel, wild type. Kind of test: patch clamp block of Kv1.3.
The target of test [26] is cloned Kv1.1 channel.
The target in test [27] is cloned Kv1.1 channel. The source holds these as a separate data set.
Test [28] has as its target cloned Kv1.2 channel. Kind of test: block of cloned channel.
Test [29] deals with cloned Kv1.3 channel, wild type. This is another data set of the same source.
For test [30], the target named is cloned Kv3.1 channel. Kind of test: whole-cell patch clamp block, cell line stably expressing the channel.
Test [31] concerns the target cloned Kv1.3 channel, wild type. The test is described as above.
In test [32] the target is cloned Kv1.5 channel. Described as above.
For test [33], the target named is cloned Kv1.2 channel. The description is as above.
The target in test [34] is cloned Kv1.1 channel. Described as above.
The target in test [35] is cloned Kv1.3 channel, wild type. This is another data set of the same source.
For test [36], the target named is cloned Kv1.1 channel. The source holds these as a separate data set.
For test [37], the target named is small conductance calcium-activated potassium channel in T-cells. Kind of test: block of channel in T-cells.
In test [38] the target is T1, rat brain membrane K channels (delayed rectifier, primarily Kv1.2) (rat, UniProt P63142). The test is described as follows: IC50 ratio on brain delayed rectifier K channels (table title); assay not given.
The target of test [39] is T1, rat brain membrane K channels (delayed …). The test is described as follows: 125I-DTX displacement, rat brain membranes.
Test [40] shares this target.
The target in test [41] is T2, Kv1.3 potassium channel of human T lymphocytes (human, UniProt P22001). The test is described as follows: 125I-ChTX displacement, Jurkat T lymphocytes.
The target of test [42] is T2, Kv1.3 potassium channel of human T …. Kind of test: 125I-ChTX displacement, Jurkat T lymphocytes. This is another data set of the same source.
The target of test [43] is rat brain membrane K channels (delayed rectifier, primarily Kv1.2) (rat) (UniProt P63142). Kind of test: 125I-dendrotoxin displacement assay.

Where “and” joins values, the source holds several entries; their conditions need not be identical. Identical values can stand only once. Like-named read-outs stand apart in the source and are kept apart here. Bridges are numbered along the chain shown (N, C = ends). Where no end group is shown, it is not given here. Where only a bound is given, the exact number is not on record here.

Chain of Kv1.3 potassium channels in Jurkat T lymphocytes (P22001 whole entry): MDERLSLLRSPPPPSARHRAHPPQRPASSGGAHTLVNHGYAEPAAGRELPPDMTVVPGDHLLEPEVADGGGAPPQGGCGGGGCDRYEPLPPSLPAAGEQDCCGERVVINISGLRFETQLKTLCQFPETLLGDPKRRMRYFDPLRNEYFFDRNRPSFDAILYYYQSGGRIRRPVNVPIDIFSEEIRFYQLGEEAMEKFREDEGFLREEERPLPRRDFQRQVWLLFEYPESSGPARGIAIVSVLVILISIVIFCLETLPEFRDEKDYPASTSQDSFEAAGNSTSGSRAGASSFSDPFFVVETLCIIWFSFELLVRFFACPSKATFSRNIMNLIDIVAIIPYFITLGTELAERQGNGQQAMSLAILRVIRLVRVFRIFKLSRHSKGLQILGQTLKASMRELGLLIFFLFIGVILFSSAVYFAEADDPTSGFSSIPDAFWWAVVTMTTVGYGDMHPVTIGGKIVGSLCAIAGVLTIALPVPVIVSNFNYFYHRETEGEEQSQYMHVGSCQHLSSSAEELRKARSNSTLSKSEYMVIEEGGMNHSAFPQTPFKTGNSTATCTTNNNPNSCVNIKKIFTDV
Chain of Kv1.3 (P16390 whole entry): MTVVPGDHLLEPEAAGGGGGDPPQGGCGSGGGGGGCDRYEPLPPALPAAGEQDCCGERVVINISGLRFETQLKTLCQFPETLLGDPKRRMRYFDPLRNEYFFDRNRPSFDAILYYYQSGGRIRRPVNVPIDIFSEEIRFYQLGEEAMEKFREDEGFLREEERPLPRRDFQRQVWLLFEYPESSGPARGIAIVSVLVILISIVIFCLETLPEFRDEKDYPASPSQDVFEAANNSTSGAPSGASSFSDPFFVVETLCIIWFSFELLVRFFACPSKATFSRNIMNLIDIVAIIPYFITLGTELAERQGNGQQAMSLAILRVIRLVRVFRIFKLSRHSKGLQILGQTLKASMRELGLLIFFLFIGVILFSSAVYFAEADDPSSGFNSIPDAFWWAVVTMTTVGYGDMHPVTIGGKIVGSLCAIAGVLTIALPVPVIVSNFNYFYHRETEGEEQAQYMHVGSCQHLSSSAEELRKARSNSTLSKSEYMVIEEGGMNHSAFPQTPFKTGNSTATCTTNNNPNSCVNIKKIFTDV

Take ShK K9E (analog 104) (peptide): in [1], the IC50 ratio (analog IC50/ShK IC50) came out at 3.57.
As a reminder, the Kd is the free concentration of one partner at which half of the binding sites on the other are occupied at equilibrium, for simple one-to-one binding. On to `CC[C@H](C)[C@@H]1NC(=O)[C@@H](NC(=O)[C@H](CO)NC(=O)[C@@H](N)CCCNC(=N)N)CSSC[C@@H](C(=O)O)NC(=O)[C@H]([C@@H](C)O)NC(=O)CNC(=O)[C@@H]2CSSC[C@@H]3NC(=O)[C@H](CCC(N)=O)NC(=O)[C@H](Cc4ccccc4)NC(=O)[C@H](C)NC(=O)[C@H]([C@@H](C)O)NC(=O)[C@H](CSSC[C@H](NC(=O)[C@H](Cc4ccccc4)NC(=O)[C@H](CO)NC(=O)[C@H](CC(C)C)NC(=O)[C@H](CCCNC(=N)N)NC(=O)[C@H](Cc4ccc(O)cc4)NC(=O)[C@H](CCCCNC(N)=O)NC(=O)[C@H](CCSC)NC(=O)[C@H](CO)NC(=O)[C@H](Cc4c[nH]cn4)NC(=O)[C@H](CCCCN)NC3=O)C(=O)N[C@@H](CCCNC(=N)N)C(=O)N[C@@H](CCCCN)C(=O)N[C@@H]([C@@H](C)O)C(=O)N2)NC(=O)[C@H](CCCNC(=N)N)NC(=O)[C@H](CO)NC(=O)[C@H](CCCCN)NC(=O)[C@@H]2CCCN2C(=O)[C@H]([C@@H](C)CC)NC(=O)[C@H]([C@@H](C)O)NC(=O)[C@H](CC(=O)O)NC1=O` [K22Homocit], for which, at Kv1.3 (read-out: Kd), the Kd is over 100 nM.
As usually defined, the IC50 is the point on the concentration scale where inhibition reaches its midpoint. Turning to `CC[C@H](C)[C@@H]1NC(=O)[C@@H](NC(=O)[C@H](CO)NC(=O)[C@@H](N)CCCNC(=N)N)CSSC[C@@H](C(=O)O)NC(=O)[C@H]([C@@H](C)O)NC(=O)CNC(=O)[C@@H]2CSSC[C@@H]3NC(=O)[C@H](CCC(N)=O)NC(=O)[C@H](Cc4ccccc4)NC(=O)[C@H](C)NC(=O)[C@H]([C@@H](C)O)NC(=O)[C@H](CSSC[C@H](NC(=O)[C@H](Cc4ccccc4)NC(=O)[C@H](CO)NC(=O)[C@H](CC(C)C)NC(=O)[C@H](CCCNC(=N)N)NC(=O)[C@H](Cc4ccc(O)cc4)NC(=O)[C@H](CCCN)NC(=O)[C@H](CCSC)NC(=O)[C@H](CO)NC(=O)[C@H](Cc4c[nH]cn4)NC(=O)[C@H](CCCCN)NC3=O)C(=O)N[C@@H](CCCNC(=N)N)C(=O)N[C@@H](CCCCN)C(=O)N[C@@H]([C@@H](C)O)C(=O)N2)NC(=O)[C@H](CCCNC(=N)N)NC(=O)[C@H](CO)NC(=O)[C@H](CCCCN)NC(=O)[C@@H]2CCCN2C(=O)[C@H]([C@@H](C)CC)NC(=O)[C@H]([C@@H](C)O)NC(=O)[C@H](CC(=O)O)NC1=O` [K22Orn], in [2], the “Equipotent Molar Ration (Analog IC50 /ShK IC50) Rat brain” value is recorded as 1.7; the “IC50 Ratio” value is given as 1.2; the “binding affinity for rat brain K channels relative to wild-type ShK toxin, in words” value was “little effect”; the “reduction of apparent affinity” value is reported as “about 120%”. Moreover, in [2], the ΔF was determined as 0.11. Further, the IC50 in test [2] (read-out: IC50 Rat Brain 125I-CTX) is 20 nM. Moreover, in [3], the “Equipotent Molar Ration (Analog IC50 /ShK IC50) Lymphocyte” value is listed as 1.2 and the “reduction of affinity (IC50) for Kv1.3 relative to ShK toxin” value was “only slightly reduced (two times)”. Also, the Kd at Kv1.3 is 2 ± 1 nM.
As for “ShK-K22DAP (peptide; other documents disagree on this pair)”, the dissociation constant Kd in [4] was over 100 nM.
Regarding ShK K22Orn (peptide), in test [5], the half-inhibitory concentration (IC50) turned out to be 20 nM. In addition, the IC50 ratio (analog IC50/ShK IC50) in test [6] stood at 1.7. In [7], this molecule gave a Kd of 2 nM. Also, the equipotent molar ratio (analog IC50/ShK IC50) for block of Kv1.3 current in test [8] worked out at 1.2. Further, the reduction of apparent affinity in test [9] came to 120%. In test [10], the IC50 ratio (analog IC50/ShK IC50) worked out at 1.2 and the free energy difference of binding turned out to be 0.11 kcal/mol.
Consider “ShK toxin (synthetic, wild type) (peptide)”, for which the IC50 in test [5] amounted to 8 nM. The free energy difference of binding in test [11] and in test [22] was 0 kcal/mol each time. In test [12], this molecule returned a block of Kv1.3 current, whole-cell patch clamp (IC50) of 12 pM. The block of Kv1.2 current, whole-cell patch clamp with cloned Kv1.2 channel [13] came to 100 fold. Also, the dissociation constant (Kd) in [14] is 0.1 nM; in test [7], 0.7 nM; in [15], 0.6 nM and 0.3 nM; in test [16], 0.01 nM; with cloned Kv1.1 channel [17], 0.01 nM; in test [18] it was 28 nM. The Kd with Kv1.3 H404Y came to 4 nM; in [19] it was 0.6 nM; with Kv1.3 D386K, 1.8 nM; in the test with Kv1.3 D386N it was 0.4 nM; with Kv1.3 G380E it was 0.6 nM; in the test with Kv1.3 H404L it was 3.2 nM. For the same molecule, the Kd was 0.3 nM with Kv1.3 H404T; over 1000 nM with cloned Kv3.1 channel [20]; over 1000 nM with cloned Kv1.5 channel [21]; 0.012 nM in test [23]; 9 nM in the test with cloned Kv1.2 channel [24]; 0.011 nM in test [25].
In the test with cloned Kv1.1 channel [26], ShK-K22DAP (peptide) yielded a potency on Kv1.1 against its potency on Kv1.3 of 40 fold. The molecule further came in with a loss of potency against Kv1.1 in the test with cloned Kv1.1 channel [27] of over 100 fold. The Kd with cloned Kv1.2 channel [28] is 5 nM; with cloned Kv3.1 channel [30], over 100 nM; in test [31], 0.023 nM; with cloned Kv1.5 channel [32], over 100 nM; with cloned Kv1.2 channel [33], 39 nM; in the test with cloned Kv1.1 channel [34], 3 nM. Besides, in [37], the Kd was determined as 10 nM. Also, the half-blocking dose for Kv1.3 in test [29] is 28 pM. Moreover, in [35], the block of Kv1.3 current, whole-cell patch clamp (IC50) is 30 pM. The molecule also registered a block of Kv1.1 current, whole-cell patch clamp with cloned Kv1.1 channel [36] of 30 fold. Further, in test [10], the free energy difference of binding worked out at 2.23 kcal/mol.
With Ac-RSCIDTIPKSRCTAFQCKHSMKYRLSFCRKTCGTC (ends and bridges not checked) [N-alpha-acetyl ShK toxin], the “IC50 ratio (analog IC50/ShK IC50)” value in test [38] and in test [39] was 1 ratio each time.
Consider RSCIDTIPKSRCTKFQCDHSMKYRLSFCRKTCGTC (lactam 14-18; ends not checked) [ShK analog 106, Lactam Bridge (K14 -D18)], for which the “IC50 ratio (analog IC50/ShK IC50)” value in test [40] was 1.63 ratio.
As for RSCIDTIPKSRCTAFQCKHSMKYRLSFCRKTCGTC [ShK toxin (synthetic, wild type)], the IC50 in test [41] was 0.032 nM; in [42] it was 0.04 nM.
On to KSRCTAFQCKHSXKYRLSFCRKTC (norleucine at position 21) [bicyclic truncated ShK analog of Example 14 (Cys12-Cys28, Cys17-Cys32)], for which the IC50 ratio (analog IC50/ShK IC50) in test [43] turned out to be 1360.
On the same count and under the same terms, under KSRCTAFQCKHSXKYRLSFCRKTC (norleucine at position 21; Cys12 and Cys28 S-acetamidomethyl (Acm)) [monocyclic truncated ShK analog of Example 14 (Cys17-Cys32)] stands over 3000.

The values are drawn from US6077680A (The University of Florida, dated 2000).
